No end group written: not given here.
B1: peptide of SEQ ID NO 16 (408-423) (peptide)
peptide: LVRYTKKVPQVSTPTL
notes: Chemically synthesized fragment of human serum albumin (HSA)

What was measured:
[1] = biological target: T1, CXC chemokine receptor 4 (CXCR4) (human, UniProt P61073 1-352); assay: cell-based or functional assay
[2] = biological target: T1, CXC chemokine receptor 4 (CXCR4); assay: cell-based or functional assay; remark: listed apart in the source
eGFP-CXCR4 = biological target: T2, eGFP-CXCR4 (UniProt P61073 1-352); assay: competition with 100 nM CXCL12-TexasRed on cells expressing eGFP-CXCR4, real-time fluorescence
T2 construct: whole, on cells; not shown: EGFP part of the fusion
T2 sequence (P61073 whole entry, the tested form may be a part): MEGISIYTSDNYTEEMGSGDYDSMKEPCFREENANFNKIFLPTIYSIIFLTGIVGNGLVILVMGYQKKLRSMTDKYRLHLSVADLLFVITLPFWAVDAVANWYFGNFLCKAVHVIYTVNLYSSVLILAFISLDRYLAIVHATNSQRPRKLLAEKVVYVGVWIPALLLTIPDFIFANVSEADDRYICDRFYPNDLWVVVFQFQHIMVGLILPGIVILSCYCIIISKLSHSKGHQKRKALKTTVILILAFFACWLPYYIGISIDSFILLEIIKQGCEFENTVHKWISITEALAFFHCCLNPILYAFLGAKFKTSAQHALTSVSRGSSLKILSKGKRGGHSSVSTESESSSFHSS
Procedure: Experiments were performed using cells stably expressing eGFP-CXCR4, suspended in HEPES-bovine serum albumin buffer (10 mM HEPES, 137.5 mM NaCl, 1.25 mM MgCl₂, 1.25 mM CaCl₂, 6 mM KCl, 10 mM glucose, 0.4 mM NaH₂PO₄, 0.1% bovine serum albumin (w/v), pH 7.4) (typically at 10⁶ cells/mL). Time-based recordings of the fluorescence emitted at 510 nm (excitation at 470 nm) were performed at 21° C. using a spectrofluorimeter and sampled every 0.3 s. Fluorescence binding measurements were initiated by adding at 30 s 100 nM of CXCL12-TR to the 1 mL cell suspension. For competition experiments, EGFP-CXCR4 expressing cells were preincubated for 10 min in the absence or presence of various concentrations of unlabelled drugs. Then, CXCL12-TR (100 nM) was added and fluorescence was recorded until equilibrium was reached (300 s). Data were analyzed using Kaleidagraph 3.08 software (Synergy Software, Reading, Pa., USA).

T1 sequence (P61073 whole entry): as the sequence (P61073 whole entry, the tested form may be a part) above

| Binder | IC50 (µM), blocking of X4 tropic HIV-1 NL4-3 infection [1] | mean 50% inhibitory concentration (IC50) of infection by X4 HIV-1 strains [2] | Ki (eGFP-CXCR4) |
| --- | --- | --- | --- |
| LVRYTKKVPQVST [408-420] | 15.3 µM | – | – |
| IVRYTKCVPQVS (also: homodimer, disulfide between Cys of the two monomers) [408I-419 K414C x2] | 1.05 µM | – | – |
| IVRWSKKVPCVS [408I-419 WSC02] | 0.31 µM | – | – |
| IVRYTKKVPQCS [408I-419 V418C] | 3.69 µM | – | – |
| IVRWSKKVCQVS [408I-419 WSC03] | 1.51 µM | – | – |
| IVRWSKKVPQCS [408I-419 WSC01] | 0.87 µM | – | – |
| LVRYTKKVPQVSTP [408-421] | 14 µM | – | – |
| IVRWCKKVPQVS (also: homodimer, disulfide between Cys of the two monomers) [408I-419 WC03 x2] | 0.6 µM | – | – |
| LLVRYTKKVPQVS [407-419] | 11.1 µM | – | – |
| IVRYTKKVPQCS (also: homodimer, disulfide between Cys of the two monomers) [408I-419 V418C x2] | 0.46 µM | – | – |
| IVRWTKKVPQVC (also: homodimer, disulfide between Cys of the two monomers) [408I-419 WC01_x2] | 0.4 µM | – | – |
| IVRWSKKVPCVS (also: homodimer, disulfide between Cys10 of two monomers) [408I-419 WSC02 x2] | 0.12 µM | – | – |
| IVRYSKKVPQVS [408I-419 T412S] | 2.09 µM | – | – |
| LVRYTKKVPQVSTPT [408-422] | 13.4 µM | – | – |
| IVRYSKKVPQC [408I-418 SC] | 2.94 µM | – | – |
| LVRYTKKVPQ [408-417] | 19.8 µM | – | – |
| IVRWTCKVPQVS (also: homodimer, disulfide between Cys of the two monomers) [408I-419 WC02 x2] | 0.32 µM | – | – |
| IVRWCKKVPQVS [408I-419 WC03] | 1.82 µM | – | – |

| Binder | IC50 (µM), blocking of X4 tropic HIV-1 NL4-3 infection [1] | mean 50% inhibitory concentration (IC50) of infection by X4 HIV-1 strains [2] | Ki (eGFP-CXCR4) |
| --- | --- | --- | --- |
| LVRYAKKV [408-415-T412A] | 11.2 µM | – | – |
| IVKYTKKVPQVS [408I-419 R410K] | > 100 µM | – | – |
| LVRYTKKVPQV [408-418] | 26.8 µM | – | – |
| IVRYTKKVPQVS [408I-419] | 2.48 µM | – | – |
| LARYTKKV [408-415-V409A] | 32.9 µM | – | – |
| IVRWTKKVPQVC [408I-419 WC01] | 1.65 µM | – | – |
| LVRYTKKV [408-415] | 25.7 µM | – | – |
| IVRYTKCVPQVS [408I-419 K414C] | 5.87 µM | – | – |
| IVHYTKKVPQVS [408I-419 R410H] | > 100 µM | – | – |
| IVRWTKKVPQVS [408I-419 Y411W] | 1.54 µM | – | – |
| IVRFTKKVPQVS [408I-419 Y411F] | 3.89 µM | – | – |
| IVRYSKKVPQC (also: homodimer, disulfide between Cys of the two monomers) [408I-418 SC x2] | 0.39 µM | – | – |
| LVRYTKKVPQVS [408-419] | 5.49 µM | – | – |
| IVRWSKKVPQCS (also: homodimer, disulfide between Cys of the two monomers) [408I-419 WSC01 x2] | 0.18 µM | – | – |
| IVRSTKKVPQVS [408I-419 Y411S] | > 100 µM | – | – |
| IVRWTCKVPQVS [408I-419 WC02] | 2.1 µM | – | – |
| B1 | 8.63 µM | 15.8 µg/mL | 3000 nM |
